Four molecules from patent US20180185504A1 (Regeneron, published 2018) can be followed below.

In general, IC50 refers to the point on the concentration scale where inhibition reaches its midpoint.

One assay has as its target T1, IL-6R (human, UniProt P08887 20-468).
T1 construct: whole, on cells
T1 sequence (looked up): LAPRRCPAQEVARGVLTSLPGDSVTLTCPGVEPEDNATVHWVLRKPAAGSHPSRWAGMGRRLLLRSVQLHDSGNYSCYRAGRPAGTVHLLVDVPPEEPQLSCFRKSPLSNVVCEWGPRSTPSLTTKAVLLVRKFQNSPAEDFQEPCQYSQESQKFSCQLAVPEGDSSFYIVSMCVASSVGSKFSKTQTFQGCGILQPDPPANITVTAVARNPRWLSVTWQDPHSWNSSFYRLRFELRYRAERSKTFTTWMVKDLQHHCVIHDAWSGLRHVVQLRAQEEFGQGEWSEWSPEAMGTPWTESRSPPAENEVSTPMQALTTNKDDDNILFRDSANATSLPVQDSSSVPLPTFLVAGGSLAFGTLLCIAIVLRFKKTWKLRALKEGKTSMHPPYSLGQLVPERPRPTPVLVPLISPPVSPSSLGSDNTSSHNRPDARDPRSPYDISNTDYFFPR
Briefly: flow cytometry, anti-IL-6R antibody on KG-1 cells (endogenous IL-6R), PE anti-human secondary. A general note: A flow cytometer gives signals particle by particle.

Assay [1] has as its target T2, dimeric form of cynomolgus monkey (Macaca fascicularis) PRLR (Example 12 ELISA) (cynomolgus monkey (Macaca fascicularis)).
T2 construct: also called monkey PRLR
The assay is described as follows: blocking ELISA: 10 nM dimeric monkey PRLR premixed with mAb (520 pM to 30 nM), plate-coated human PRL. As for the experimental part:
(§1) Dimeric forms of human or cynomolgus monkey (Macaca fascicularis) PRLR and monomeric human PRL were used in this assay. […] After 1-hour incubation, captured PRLR was detected with HRP-conjugated goat anti-Fcγ antibody and visualized with TMB colorimetric substrate by measuring absorbance at 450 nm. […] Mixtures were then added to plates coated with in 1 μg/mL PRL and captured PRLR was detected as described above. Data were analyzed using a four-parameter logistic equation over an 11-point response curve in GraphPad Prism software and IC₅₀ values were calculated.
In general terms: ELISA stands for enzyme-linked immunosorbent assay.

For assay [2], the target named is T3, mouse PRLR with an HA tag on HEK293 cells (mouse, UniProt Q08501 20-608).
T3 construct: whole, on cells; also called HEK293/mPRLR; rodent PRLR; not shown: HA tag
T3 sequence (looked up): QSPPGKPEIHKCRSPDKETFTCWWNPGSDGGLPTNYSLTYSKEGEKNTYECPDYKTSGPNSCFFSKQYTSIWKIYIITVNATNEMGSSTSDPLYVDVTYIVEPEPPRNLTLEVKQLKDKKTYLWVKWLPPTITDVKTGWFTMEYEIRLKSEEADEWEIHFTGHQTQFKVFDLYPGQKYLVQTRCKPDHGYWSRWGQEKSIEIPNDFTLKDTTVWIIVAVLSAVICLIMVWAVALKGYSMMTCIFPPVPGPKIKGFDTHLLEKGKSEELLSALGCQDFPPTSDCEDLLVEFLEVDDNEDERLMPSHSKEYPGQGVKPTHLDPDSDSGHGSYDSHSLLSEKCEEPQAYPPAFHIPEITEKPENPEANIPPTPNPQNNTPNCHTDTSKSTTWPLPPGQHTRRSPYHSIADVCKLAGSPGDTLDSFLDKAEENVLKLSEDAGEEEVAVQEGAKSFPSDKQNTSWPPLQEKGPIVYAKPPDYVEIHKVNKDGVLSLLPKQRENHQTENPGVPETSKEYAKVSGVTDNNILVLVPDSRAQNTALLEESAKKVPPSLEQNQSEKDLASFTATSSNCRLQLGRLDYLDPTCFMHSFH
The assay is described as follows: FACS on HEK293/mPRLR cells.

In assay [3] the target is T4, dimeric form of human PRLR (Example 12 ELISA) (human).
T4 construct: PRLR'
T4 sequence (P16471 whole entry, looked up): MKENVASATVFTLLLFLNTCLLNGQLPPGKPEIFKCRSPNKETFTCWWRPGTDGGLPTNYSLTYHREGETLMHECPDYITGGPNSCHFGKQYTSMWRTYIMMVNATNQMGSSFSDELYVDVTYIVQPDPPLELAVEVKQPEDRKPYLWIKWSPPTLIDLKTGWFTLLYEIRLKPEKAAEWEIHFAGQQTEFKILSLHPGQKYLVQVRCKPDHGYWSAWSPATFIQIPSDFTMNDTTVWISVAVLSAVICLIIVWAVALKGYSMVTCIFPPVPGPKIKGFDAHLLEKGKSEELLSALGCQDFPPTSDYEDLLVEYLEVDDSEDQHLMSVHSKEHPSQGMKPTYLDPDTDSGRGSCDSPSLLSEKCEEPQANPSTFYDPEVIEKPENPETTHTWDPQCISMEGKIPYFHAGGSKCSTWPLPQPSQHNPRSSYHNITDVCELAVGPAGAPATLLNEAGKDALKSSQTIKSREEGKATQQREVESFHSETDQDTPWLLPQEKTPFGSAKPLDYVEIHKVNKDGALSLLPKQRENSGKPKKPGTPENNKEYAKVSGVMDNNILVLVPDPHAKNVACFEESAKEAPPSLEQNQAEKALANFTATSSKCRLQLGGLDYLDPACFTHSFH
Briefly: blocking ELISA: 10 nM dimeric human PRLR premixed with mAb (520 pM to 30 nM), plate-coated human PRL. The method, then: as §1

Assay [4] deals with T5, hPRLR-mmH (recombinant extracellular domain of hPRLR with a C-terminal myc-myc-hexahistidine tag) (human).
T5 construct: the entry includes the myc-myc-His6 tag; also called truncated form of PRLR
T5 chain: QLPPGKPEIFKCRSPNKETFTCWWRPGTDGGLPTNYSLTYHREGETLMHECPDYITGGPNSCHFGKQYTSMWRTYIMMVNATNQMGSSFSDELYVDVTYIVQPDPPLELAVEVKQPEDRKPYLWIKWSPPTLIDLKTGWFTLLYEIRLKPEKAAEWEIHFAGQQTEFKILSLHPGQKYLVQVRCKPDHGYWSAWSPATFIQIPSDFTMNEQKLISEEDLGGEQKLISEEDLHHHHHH
Briefly: H/D exchange MS; hPRLR-mmH bound to H1H6958N2 on NHS agarose beads.

The target of assay [5] is T6, human prolactin receptor (PRLR) on cells (human, UniProt P16471 25-622).
T6 sequence: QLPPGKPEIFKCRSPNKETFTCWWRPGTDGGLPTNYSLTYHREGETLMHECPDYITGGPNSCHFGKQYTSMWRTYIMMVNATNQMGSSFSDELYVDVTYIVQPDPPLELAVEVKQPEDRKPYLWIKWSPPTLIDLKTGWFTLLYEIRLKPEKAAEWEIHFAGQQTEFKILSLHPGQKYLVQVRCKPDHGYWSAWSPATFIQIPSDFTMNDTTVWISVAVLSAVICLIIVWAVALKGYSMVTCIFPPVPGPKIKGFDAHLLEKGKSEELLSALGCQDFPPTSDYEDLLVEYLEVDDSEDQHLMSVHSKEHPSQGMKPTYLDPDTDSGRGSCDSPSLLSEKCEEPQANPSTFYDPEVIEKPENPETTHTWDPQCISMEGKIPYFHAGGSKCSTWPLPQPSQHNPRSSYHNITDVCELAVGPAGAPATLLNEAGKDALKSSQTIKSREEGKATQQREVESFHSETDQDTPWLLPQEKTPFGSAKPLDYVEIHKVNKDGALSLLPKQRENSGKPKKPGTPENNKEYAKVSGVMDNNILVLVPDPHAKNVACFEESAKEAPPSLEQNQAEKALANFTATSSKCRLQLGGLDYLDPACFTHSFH
Briefly: cell-based or functional assay.

The target of assay [6] is T4, dimeric form of human PRLR (Example 12 …). Briefly: blocking ELISA: 10 nM dimeric human PRLR premixed with ADC (520 pM to 30 nM), plate-coated human PRL. The method, then:
as §1

The target in assay [7] is T2, dimeric form of cynomolgus monkey …. Briefly: blocking ELISA: 10 nM dimeric monkey PRLR premixed with ADC (520 pM to 30 nM), plate-coated human PRL. As for the experimental part:
as §1

Assay [8] addresses T7, hPRLR-mmH (recombinant extracellular domain of hPRLR with a C-terminal myc-myc-hexahistidine tag) (human).
T7 construct: also called truncated form of PRLR
T7 chain: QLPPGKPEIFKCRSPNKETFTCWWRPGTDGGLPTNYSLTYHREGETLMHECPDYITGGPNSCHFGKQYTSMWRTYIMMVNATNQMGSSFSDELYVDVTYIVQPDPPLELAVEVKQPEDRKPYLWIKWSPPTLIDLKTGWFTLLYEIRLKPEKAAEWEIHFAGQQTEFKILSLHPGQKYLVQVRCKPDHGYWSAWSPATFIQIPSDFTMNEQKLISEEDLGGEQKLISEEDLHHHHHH
Briefly: H/D exchange; hPRLR-mmH captured on H1H6958N2 agarose beads.

B1: VV6A9-5 (antibody, V domains shown)
VH: EVQLVESGGGLVQPGRSLRLSCAASGFTFDDYALHWVRQAPGKGLEWVSGVSWNGGRIGYADSVKGRFTISRDNAKNSLFLQMNSLRVEDTALYYCAKGRDAFDIWGQGTLVTVSS
VL: DIQMTQSPSSVSASVGDRVTITCRASQGISSWLAWYQQKPGKAPKLLIYAASSLQSGVPSRFSGSGSGTDFTLTISSLQPEDFATYYCQHAYSFPYTFGQGTKLEIK
Consider B1, for which, in the assay with IL-6R, the “Fold Over Background (FACS MFI above isotype control)” value turned out to be 7 fold over background.

B2: H1H6958N2 (antibody, human IgG1, V domains shown)
VH: QVQLVESGGGVVQPGRSLRLSCGASGFTFRNYGMQWVRQGPGKGLEWVTLISFDGNDKYYADSVKGRFTISRDNSKNTLFLQMNSLRTEDTAVYYCARGGDFDYWGQGTLVTVSS
VL: DIQMTQSPSSLSASVGDRVTITCRASQDIRKDLGWYQQKPGKAPKRLIYAASSLHSGVPSRFSGSGSGTEFTLTISSLQPEDFATYYCLQHNSYPMYTFGQGTKLEIK
notes: Tested with human IgG1 Fc (H1H); also called HIH6958N2
With B2, the IC50 in assay [1] was determined as 5.8 nM; in [3], 5 nM. For the same molecule, the binding result in assay [2] is reported as “no binding”; in assay [4] it was “binds”. Besides, the “IC50, block of PRL-induced STAT5-luciferase activity (2 nM PRL)” value in assay [5] is 0.4 nM.

B3: H1H6958N2-DM1 (antibody, human IgG1, V domains shown)
VH: QVQLVESGGGVVQPGRSLRLSCGASGFTFRNYGMQWVRQGPGKGLEWVTLISFDGNDKYYADSVKGRFTISRDNSKNTLFLQMNSLRTEDTAVYYCARGGDFDYWGQGTLVTVSS
VL: DIQMTQSPSSLSASVGDRVTITCRASQDIRKDLGWYQQKPGKAPKRLIYAASSLHSGVPSRFSGSGSGTEFTLTISSLQPEDFATYYCLQHNSYPMYTFGQGTKLEIK
modifications: maytansinoid DM1 conjugated to the antibody through an SMCC linker; conjugation sites not stated
notes: also called H1H6958N2-SMCC-DM1; PRLR ADC
As for B3, the concentration for half-maximal inhibition (IC50) worked out at 4.4 nM in assay [6] and 4.2 nM in assay [7]. For the same molecule, the “IC50, block of PRL-induced STAT5-luciferase activity (2 nM PRL)” value in [5] is 0.4 nM.

B4: H1H6958N2 (antibody, V domains shown)
VH: QVQLVESGGGVVQPGRSLRLSCGASGFTFRNYGMQWVRQGPGKGLEWVTLISFDGNDKYYADSVKGRFTISRDNSKNTLFLQMNSLRTEDTAVYYCARGGDFDYWGQGTLVTVSS
VL: DIQMTQSPSSLSASVGDRVTITCRASQDIRKDLGWYQQKPGKAPKRLIYAASSLHSGVPSRFSGSGSGTEFTLTISSLQPEDFATYYCLQHNSYPMYTFGQGTKLEIK
notes: In the H/D exchange experiment the antibody was covalently attached to NHS agarose beads; also called H2M6958N2 (same variable domains, mouse IgG2 Fc); anti-PRLR antibody H1H6958N2
With B4, in [8], the binding result is given as “binds”.
